Numbering of substitutions follows the chain as printed.
B1: Ab 416 (antibody, V domains shown)
VH: EFQLQQSGPELVKPGASVKISCKASVYSFTGYNMNWVKQSNGKSLEWIGVINPNYGNTNYNQRFKGKATLTVDQSSSTAYMQLNSLTSEDSAVYYCARSEDYYNIRGASWGQGTLVTVSA
VL: QIVLTQSPAIMSASPGQKVTITCSASSTINYMHWYQQKLGSSPKLWIYDTSKLAPGVPARFSGSGSGTSYSLTISSMEAEDAASYFCHQWSSYPPTFGSGTKLELK
notes: Full-length IgG from ExpiCHO
B2: Ab 301 (antibody, V domains shown)
VH: VVQLQQSGPELVKPGASVKMSCKASGYTFTSFLIHWVRQKPGLGLEWIGYINPYDYGINYNVKFMDKVTLTSDKTSSTAYMELSSLTSADSAIYYCTRGDYWGQGTSVIVSS
VL: DIVMTQSPSSLAVTTGEQVTMNCKSSQSLLNSGNQKNYLTWYQQKTGQSPKLLIYWASTRQSGVPDRFTGSGSGTDFTLTISSVQAEDLAVYYCLNDYGFPLTFGAGTKLELK
notes: Full-length IgG from ExpiCHO
B3: Reference antibody 1 (Benchmark 1-175D10) (antibody, V domains shown)
VH: QVQLQQPGAELVRPGASVKLSCKASGYTFTSYWINWVKQRPGQGLEWIGNIYPSDSYTNYNQKFKDKATLTVDKSSSTAYMQLSSPTSEDSAVYYCTRSWRGNSFDYWGQGTTLTVSS
VL: DIVMTQSPSSLTVTAGEKVTMSCKSSQSLLNSGNQKNYLTWYQQKPGQPPKLLIYWASTRESGVPDRFTGSGSGTDFTLTISSVQAEDLAVYYCQNDYSYPFTFGSGTKLEIK
B4: Ab 369 (antibody, V domains shown)
VH: DVKLVESGGGLVKPGGSLKLSCAASGFTFTSYTMSWVRQTPEKRLEWVATIIIGGSYTYYPDSVKGRFTISRDNAKNTLYLQMSSLKSEDTAMYYCTRLVKGNAMDYWGQGTSVTVSS
VL: B3 VL with V3L, S22T, T59S, S106A, I112L
notes: Full-length IgG from ExpiCHO
B5: Ab 392 (antibody, V domains shown)
VH: EVQLQQSGPELVKPGASVKMSCKASGFTFTSYVMHWVKQKSGQGLEWIGYINPYNDDIKYNAKFEDKATLTSDRSSSTAYMELSSLTSDDSAVYFCTRGDYWGQGTTLTVSS
VL: B2 VL with A12T, Q18K, N22D, T46S, S49P, T59I, Q61K, G99S
notes: Full-length IgG from ExpiCHO
B6: Ab 360 (antibody, V domains shown)
VH: VVQLQQSGPELVKPGASVKMSCKASGYTFTSYLMHWVRQKPGLGLDWIGYINPYNDGTNYNAKFIDKATLTSDKTSSTAYMELSSLTSEDSAIYYCTRGDYWGQGTSVTVSS
VL: B2 VL with T15A, N22S, T46P, S49P, T59I
notes: Full-length IgG from ExpiCHO; also called 360-Chim
B7: Ab 384 (antibody, V domains shown)
VH: QVQLQQSGAELARPGASVKLSCKASDYTFTSYVISWVKQRTGQGLEWIGEIYPRNGNTYYNEKFKGKATLTADKSSSTAYMELRSLTSEDSAVYFCARSYYGNSFAYWGQGTLVTVSA
VL: B3 VL with K45R, Y93C, D97N, S99Y, S106G, E111G
notes: Full-length IgG from ExpiCHO
B8: Reference antibody 2 (Benchmark 2-163E12) (antibody, V domains shown)
VH: QVQLQQSGAELARPGASVKLSCKASGYTFTDYYINWVKQRTGQGLEWIGEIYPGSGNTYYNEKFKGKATLTADKSSSTAYMQLSSLTSEDSAVYFCARSYGAFDYWGQGTTLTVSS
VL: B3 VL with F102L, S106A, I112L
B9: Ab 400 (antibody, V domains shown)
VH: QVQLKESGPGLVAPSQSLSITCTVSGFSLNSYGVSWVRQPPGKGLEWLGVIWGDGSTNYHSALKSRLNINKDKSKSQVFLKLNSLQTDDTATYYCARPTRGNAMDYWGQGTSVTVSS
VL: B3 VL with I2V, S22N, K36R, N37S, V64A, T75A, V91I, D97N, S99N
notes: Full-length IgG from ExpiCHO
B10: Ab 347 (antibody, V domains shown)
VH: EVQLQQSGPELVKPGASVKMSCKASGYTFTSYLIHWVKQKPGQGLEWIGYINPYNDATYYNEKFKAKATLTSDKSSSTAYMELSSLTSEDTAIYYCTRGDYWSQGTSVTVSS
VL: B3 VL with E61Q, A90T, Q95L, Y100F, F102L, S106A, I112L
notes: Full-length IgG from ExpiCHO
B11: Ab 331 (antibody, V domains shown)
VH: EVQLQQSGPELVKPGASVRMSCKASGYTFTSYIMHWVKQKPGQGPEWMGYINPYNDGTNYNEKFKDKATLTSDKSSSTAYMDLSSLTSEDSAVYYCTRGDYWGQGTSVTVSS
VL: B3 VL with I54F, R60K, E61K, G74R, Q95L, Y100F, F102L, S106A, I112L
notes: Full-length IgG from ExpiCHO
B12: Ab 358 (antibody, V domains shown)
VH: VVQLVESGGDFVQPGGSRKLSCAVSGFTFSSFGMHWVRQAPEKGLEWVAYISSGTTNIYYADTVKGRFTVSRDNPKNSLFLHMTSLRSEDTAMYYCVRSGYYGNSLDYWGQGTPLTVSS
VL: B3 VL with L30F, K36R, D76G, V91F, D97V, S99I, F102L, S106L, I112L, K113R
notes: Full-length IgG from ExpiCHO
B13: Ab 432 (antibody, V domains shown)
VH: B7 VH with V2I, G15R, D26G, Y32D, T41P, I51S, P53L, K63N
VL: B3 VL with G16R, S22N, S26T, D97A, S99Y, S106G
notes: Full-length IgG from ExpiCHO; also called 432-Chim
B14: Ab 376 (antibody, V domains shown)
VH: B4 VH with T30S, E46Y, I52S, I53S, G55V, V100T
VL: B3 VL with D76G, S106A, I112L
notes: Full-length IgG from ExpiCHO
B15: Ab 307 (antibody, V domains shown)
VH: B4 VH with T30S, T115A
VL: B3 VL with A15T, T40S, K45I, I54F, S83N, S106A, I112L, K113R
notes: Full-length IgG from ExpiCHO
B16: Ab 409 (antibody, V domains shown)
VH: QVQLQQSGAELARPGASVKLSCKASGYTFTSYGISWVKQRTGQGLEWIGEISPRSGNTYYNEKFKGKATLTADKSSSTAYMELRSLTSEDSAVYFCATGVITTVIPTDWYFDVWGTGTTVTVSS
VL: DIQMTQTTSSLSASLGDRVTISCRASQDISNYLNWYQQKPDGTVKLLIYYTSRLHSGVPSRFSGSGSGTDYSLTISNLEPEDIATYYCQHYSKLPPTFGSGTKLEIK
notes: Full-length IgG from ExpiCHO; 38 is used

target: T1, human Claudin-18.2 (CLDN18.2) (human); assay: FACS titration of AF647-labelled IgG on HEK293T cells overexpressing human CLDN18.2 (clone C12)
T1 construct: On cells: endogenous on HUPT4 and SNU601; also called human CLDN18.2
From the text: (§1) CLDN18.2-expressing cells were used in FACS assays to determine the CLDN18.2 antibody's ability to bind to CLDN18.2 on the surface of cells and to cross-react with other CLDN family members. HEK293 T cells engineered to express human CLDN18.2 fused to GFP, mouse CLDN18.2 fused to GFP, CLDN18.1-GFP, or GFP alone (without CLDN18.2) were used as artificial models of CLDN18.2 expression. HUPT4, SNU601, and PATU8988S cells were used as endogenous models of CLDN18.2 expression.
(§2) For each type of cell tested and for each mAb, cells were detached from the surface of the culture flasks by versene (instead of trypsin) in order to protect the cell surface proteins. The detached cells were then incubated with Alexa Fluor®-labeled CLDN18.2 mAbs for 30 min in the dark on ice at a pre-determined concentration. […] After washing, the cells were read by a BD Accuri™ Flow Cytometer C6 to detect antibody-antigen protein binding in channel FL4H. Each antibody was tested at varied concentrations to establish a dose-fluorescence curve.

| EC50 [nM] | Binder |
| --- | --- |
| 597 | B1 |
| 22.1 | B2 |
| 1090 | B3 |
| 40 | B4 |
| 446 | B5 |
| 39.7 | B6 |
| 595 | B7 |
| 1740 | B8 |
| 31.2 | B9 |
| 70.4 | B10 |
| 23.1 | B11 |
| 54.5 | B12 |
| 42.3 | B13 |
| 52.1 | B14 |
| 39.1 | B15 |
| 605 | B16 |

target: T1, human Claudin-18.2 (CLDN18.2); assay: FACS titration of AF647-labelled IgG on HUPT4 cells (endogenous CLDN18.2)
From the text: as §1, §2

| EC50 [nM] | Binder |
| --- | --- |
| 143 | B2 |
| 265 | B4 |
| 693 | B6 |
| 97.8 | B9 |
| 294 | B10 |
| 606 | B11 |
| 111 | B12 |
| 348 | B13 |
| 336 | B15 |

target: T1, human Claudin-18.2 (CLDN18.2); assay: FACS titration of AF647-labelled IgG on SNU601 cells (endogenous CLDN18.2)
From the text: as §1, §2

| EC50 [nM] | Binder |
| --- | --- |
| 256 | B2 |
| 276 | B4 |
| 119 | B6 |
| 270 | B9 |
| 276 | B10 |
| 106 | B11 |
| 414 | B12 |
| 245 | B13 |
| 221 | B15 |

target: T1, human Claudin-18.2 (CLDN18.2); assay: FACS, 1.5 ug antibody, HEK293T-CLDN18.2 C12 clone
Method: (§3) FAGS assays were carried out to determine relative antigen binding strengths of the humanized antibodies (at either 1.5 ag or 0.3 rag) for binding to CLDN18.2 as expressed by the indicated cancer cell lines.

| FACS signal (relative antigen binding strength) | Binder |
| --- | --- |
| 80600 | B3 |
| 125000 | B8 |
| 137000 | B14 |

target: T1, human Claudin-18.2 (CLDN18.2); assay: FACS, 1.5 ug antibody, HUPT4 cells (endogenous CLDN18.2)
Method: as §3

| FACS signal (relative antigen binding strength) | Binder |
| --- | --- |
| 2450 | B3 |
| 11100 | B8 |
| 31300 | B14 |

Reference: US20260104418A1 (published 2026)
